These results are taken from patent publication US20030049258A1, “Method of increasing the contractility of a heart, a heart muscle or cells of a heart muscle” (priority 2001, published 2003).

Assay [1] concerns adult ventricular cardiomyocytes. The assay can be described thus: Intracellular cAMP formation in cardiomyocytes (ELISA). The class given is cell-based, rabbit. As to the method: (§1) Single calcium-tolerant ventricular myocytes were isolated from White New Zealand rabbits. Cardiomyocytes from healthy or failing rabbit hearts were isolated according to the same protocol (Laugwitz et al. (2001) Circ Res. 88, 688-95). Briefly, the hearts were perfused and digested with collagenase. The isolated cardiomyocytes were then resuspended and cultured in modified M199 on laminin-precoated dishes (5-10 μg/cm^2) at a density of 1.5×10^5 cells per cm^2 (at 5% CO2 and 37° C.). The cells were infected with adenovirus (multiplicity of infection (moi) 1 pfu/cell) 5 hours after plating. 50-60% of the infected cardiomyocytes express the transgene at this titer. Cardiomyocytes were harvested 48 hours after adenoviral infection. The cells were homogenized and cytosolic extracts were then used for western bloffing by using a polyclonal rabbit antibody raised against phosducin. Goat anti-rabbit second antibodies by Dianova, Germany, were used as second antibodies.
Intracellular cAMP formation in cardiomyocytes: The effects of nt-del-phosducin expression on G protein-mediated signalling are shown based on the measurement of cAMP accumulation in isolated cardiomyocytes after ex vivo gene transfer. Cardiomyocytes were investigated 48 hours after adenoviral infection. The cells were harvested and stimulated with increasing concentrations of isoproterenol for 20 minutes. […]

In assay [2] the test system is cardiomyocytes isolated from failing hearts. The assay can be described thus: Single cell contraction after ex vivo adenoviral gene transfer, failing cardiomyocytes. Format: cell-based, rabbit. As to the method:
(§2) Recombinant (E1/E3-Deficient) flag-tagged adenovirus for nt-del-phosducin (Ad-nt-del-phosducin-GFP) was generated, expressing the transgene and green fluorescence protein (GFP) under the control of two independent CMV promoters in a bi-cistronic system (He et al. (1998) Proc Natl Acad Sci USA 95, 2509-14). As a control, Ad-GFP without further transgenes was used. Large virus stocks were prepared as described previously (Laugwitz et al. (1999) Circulation 99, 925-933). Adenoviral titers were determined using plaque titration and GFP expression titration in non E1-expressing cells.
as §1
(§3) Single cell contraction after adenovirus delivery: Contractility of infected cardiomyocytes was measured by an electro-optical monitoring system connected to online digitalized assessment of amplitude and velocity of shortening and of relaxation as described before (Laugwitz et al. (2001) Circ Res. 88, 688-95). After the contraction amplitude reached stability, increasing concentrations of isoproterenol were applied.

For assay [3], the system named is cardiomyocytes isolated from healthy hearts. The assay can be described thus: Single cell contraction after ex vivo adenoviral gene transfer, healthy cardiomyocytes. The class given is cell-based, rabbit. As to the method:
as §2, §1, §3

The subject of assay [4] is rabbits with heart failure. The assay can be described thus: Pacing-induced heart failure after in vivo adenoviral gene transfer: tip catheterization and echocardiography. Also noted: species or system New Zealand White rabbits. The source says:
Model of Heart Failure: Medtronic pacemakers were implanted into New Zealand White rabbits (weight 3.6±0.3 Kg; from Harlan, Munich, Germany). Two days afterwards, rapid pacing was initiated at 320 beats/min. Under this protocol, a tachycardia-induced heart failure (HF) develops reproducibly over one week. Pacing was then continued at 360 beats/min, which predictably led to a further deterioriation of heart failure. The average contractility in failing hearts was 2200±320 mmHg/sec (vs. 4000±390 mmHg/sec in healthy controls; p<0.05), and LVEDP increased from 3.6±0.4 mmHg to 13.5±1.2 (p<0.05).
Adenoviral Gene Transfer To Rabbit Myocardium: After the first week of rapid pacing, all rabbits received catheter-based adenoviral gene transfer (5×10^9 pfu) to the myocardium as described before (Weig et al. (2000) Circulation 101, 1578-1585). For the intervention, the rabbitswere anesthetized with fentanyl and propofol.
Myocardial Contractility Measurement by Echocardiography and Intraventricular Tip Catheterization: Left ventricular contractility was examined before the initiation of rapid pacing, before adenoviral gene transfer, and at the end of the protocol (two weeks after the start of pacing and one week after gene transfer). The rabbits were anesthetized as described before; ECG was monitored continuously.
For echocardiography, a 7.5 MHz probe was fixed on a tripod. Standard sections were recorded, which were well reproducible. For tip catheter measurements, a Millar 3F tip catheter connected to a differentiating device was placed in the left ventricle. After definition of basal contractility and left ventricular pressure, 200 μL of NaCl (0.9%) was injected as a negative control. Isoproterenol was infused at increasing doses. After a sufficient equilibration period, tip catheter measurements were carried out.
Improvement of LV dysfunction in pacing-induced heart failure after adenovirus delivery: Ad-GFP and Ad-nt-del-phosducin-GFP were directly delivered to rabbit hearts after 1 week of rapid pacing, and hemodynamic parameters were measured after another week of pacing at 360 bpm. […]

In assay [5] the test system is Gβγ-dependent signalling pathways. The assay can be described thus: IP3 assay: inhibition of Gβγ-mediated effects in adenovirus-infected cardiomyocytes. The class given is cell-based, rabbit. The note with it: response to 1 μmol/L bradykinin or 10 μmol/l acetylcholine, 1 minute, vs Ad-GFP. As to the method:
For IP3 assays, adenovirus-infected cardiomyocytes were stimulated with the respective agonists for 1 minute, and the reaction was stopped by adding perchloric acid (4%) and scratching the cells off. They were centrifuged at 2000×g, and then […] of KOH (10 mol/L) was added. The solution was resuspended and centrifuged again, and the protein content of each sample was determined by the method of Bradford (1976) Anal. Biochem. 72, 248-254. The supernatant was used for an assay kit using ^3H-inositol-(1,4,5)-trisphophate and a binding protein (Amersham, cat. no. TRK 1000) to measure IP3 formation, following the manufacturer's instructions.
For IP3 assays, cardiomyocytes infected with Ad-GFP or Ad-nt-del-phosducin-GFP (Example 1) were stimulated with 1 μmol/L bradykinin or 10 μmol/l acetyl choline, for 1 minute. In addition, basal levels were determined in the absence of agonists. Then the reaction was stopped by adding perchloric acid (4%) and scratching the cells off. They were centrifuged at 2000×g, and then 10 μl of KOH (10 mol/L) was added. The solution was resuspended and centrifuged again, and the protein content of each sample was determined by the method of Bradford^22. The supernatant was used for an assay kit using ^3H-inositol-(1,4,5)-trisphophate and a binding protein (Amersham, cat. no. TRK 1000) to measure IP3 formation, following the manufacturer's instructions. […]

The subject of assay [6] is adenylyl cyclase. Conditions: compared to controls in different cell types and tissues (Bauer et al. 1992; Schulz et al. 1996); cited from earlier work.
Assay [7] has as its system transgenic heart failure model (β1-TG4). The assay can be described thus: Transgenic mouse overexpressing full-length phosducin cross-bred with heart failure model (histology). Format: in vivo. Conditions: heart-failing mice vs heart-failing mice cross-bred with overexpressing mice. As to the method:
FIG. 8 Histological alterations in transgenic mouse hearts. Hematoxylin/eosin-stained 5 μm sections of paraffin-embedded left ventricular myocardium from healthy wild-type mice and from a transgenic heart failure model (,β-TG4”, see Engelhardt et al. (1999) Proc. Natl. Acad. Sci. USA 96, 7059-64). […] The sequence of full-length phosducin was cloned into a plasmid as described by Engelhardt et al. (1999) Proc. Natl. Acad. Sci. USA 96, 7059-64. The purified linear DNA (1 μg/μl) was injected into fertilized oocytes from superovulated FVB/N mice according to standard procedures. The injected oocytes were transferred to the oviducts of pseudopregnant CD-1 mice. All mice were kept in a specific pathogen-free facility. Generation and investigation of these mice was approved by the responsible government authorities. The F0 generation was screened for integration of the transgene by PCR using specific primers. The transgenic mouse was tested with regard to the effect of overexpression of wild type full-length phosducin on the development of heart failure in a murine disease model.

`CC(C)NCC(O)c1ccc(O)c(O)c1` (stereo not drawn) [isoproterenol, reference compound]: the “intracellular cAMP content” value in assay [1] (isoproterenol stimulation, all groups, FIG. 3) was “increased”.

B1: nt-del-phosducin: N-terminal truncated human phosducin variant of SEQ ID No: 2 (52 N-terminal amino acids deleted), expressed from adenovirus Ad-nt-del-phosducin-GFP (protein, listed as Homo sapiens)
chain: MSSPQSRDDKDSKERFSRKMSVQEYELIHKDKEDENCLRKYRRQCMQDMHQKLSFGPRYGFVYELESGEQFLETIEKEQKITTIVVHIYEDGIKGCDALNSSLICLAAEYPMVKFCKIKASNTGAGDRFSSDVLPTLLVYKGGELLSNFISVTEQLAEEFFTGDVESFLNEYGLLPEKEMHVLEQSNMEEDME
modifications: GFP expressed via adenovirus
With B1, the “maximal contraction amplitude in response to isoproterenol” value in assay [2] (failing cardiomyocytes, FIG. 5B) was “enhanced”. Further, the “shift of isoproterenol concentration-response curve” value in assay [2] (failing cells) and in assay [3] (normal cells) was “significantly shifted to the left” throughout. The “Emax of fractional shortening in response to isoproterenol” value is 7.8±0.1 in assay [2] (failing cells, infected ex vivo, Hill equation fit) and 11.2±0.2 in assay [3] (healthy cells, infected ex vivo, Hill equation fit). In addition, the “basal and maximal contractility in response to isoproterenol” value in assay [3] (compared to Ad-GFP-infected control cells, FIG. 5A) is “markedly increased”. The shortening velocity result in assay [3] (compared with contraction amplitude results, normal and failing cardiomyocytes) is listed as “Very similar results”. In assay [4] (change during the second week of rapid pacing (before gene transfer vs end of experiment)), the “LV fractional shortening (FS) by serial echocardiography” value is listed as “did not change”. Also, the “first derivative of LV pressure (dp/dt max)” value in assay [4] (one week after gene transfer, in response to isoproterenol, vs Ad-GFP-infected control group) was “significantly higher”. The “increase in systolic LV pressure in response to isoproterenol” value in assay [4] (one week after gene transfer, vs Ad-GFP-infected control group) is given as “significantly higher”. For the same molecule, in assay [5], the “intracellular IP3 formation” value was “reduced”. In addition, in assay [1] (48 hours after infection, isoproterenol 20 minutes, vs GFP, did not reach statistical significance), the “cAMP formation in response to isoproterenol” value is given as “trend towards decreased cAMP formation”.

B2: full-length phosducin: Wild type full-length phosducin, Gβγ binding protein; overexpressed in transgenic mouse hearts (protein)
chain: MEEAKSQSLEEDFEGQATHTGPKGVINDWRKFKLESQDSDSIPPSKKEILRQMSSPQSRNGKDSKERVSRKMSIQEYELIHKEKEDENCLRKYRRQCMQDMHQKLSFGPRYGFVYELETGKQFLETIEKELKITTIVVHIYEDGIKGCDALNSSLTCLAAEYPIVKFCKIKASNTGAGDRFSLDVLPTLLIYKGGELISNFISVAEQFAEEFFAGDVESFLNEYGLLPEREVHVLEHTKIEEEDVE
With B2, in assay [6], the “maximal βAR-dependent adenylyl cyclase stimulability” value was “significantly decrease”. In addition, in assay [7], the “degree of heart failure (histologically: myocyte hypertrophy and fibrosis of heart sections)” value was “no observable differences”.
